Data as given in the nanobody polyreactivity screen of Harvey et al. (2022).

assay: yeast display, Sf9 membrane polyspecificity reagent, FACS + sequencing; frameworks hold sequencing errors
Procedure, shortened: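 A nanobody's polyreactivity label depends on the gate it was sorted from. Yeast display cells were stained with 10% biotinylated, detergent-solubilized Sf9 membrane reagent for 1 hour at 4 °C, enriched on streptavidin microbeads and sorted by FACS. The low and high (top ~1%) gates were set on anti-HA fluorescence for expression and streptavidin fluorescence for reagent binding.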

Sequence | polyreactivity (PSR sort gate)
QDQLVESGGGLVQAGGSLRLSCAASGRTFRYYAMGWYRQAPRKERELVAAISSGGSTNYADSVKARFTISRDNAKNTVYLQMNRLKPEDTGVYYCAVQAWYMTYSYPYSKGYYWGQGTQLTVSS | high polyreactivity
QVQLVESGGGLVQAGGSLRLTCAASGGIFVFYAMGWYRQAPGKERELVAAIRYGGSSTYYADSVKGRFTISRDNAKNTVYLQMNSLKPEDTAVYYCAAEPYSWDTWVDYDYWGQGTQVTVSS | low polyreactivity
QVQLVESGAGLFQAGGSLRLSCAASGSTFVSYAMGWYRQAPGKEREFVAAITWSGGSTYYADSVKGRFTISRDNAKNTVYLQMNSLKPEDTAVYYCARPYRGSPRYYYWGQGTQVTVSS | high polyreactivity
QVQLVESGGGLVQAGGSLRISCAASGSNFASYAMGWYRQAPGKERELVSVITSGGRTYYADSVKGRFTISRDNAKNTVYLQMNSLKPEDTAVYYCKAYLFFLNRVWSFDYWGQGTQVTVSS | high polyreactivity
QVQLVESGGGLVQAGGSLRISCAASGSIFDTNPMGWYRQAPGKERELVAAITSSGASTYYADSVKGRFTISRDNAKNTVYLQMNSLKPEDTAVYYCAADGAVDGGYWGQGTQVTVSS | low polyreactivity
QVQLVESGGGLVQAGGSLRLSCAASGSTFYKNAMGWYRQAPGKERELVAAINQSGTRTYYADSVKGRFTISRDNAKNTVYLQMNSLKPEDTAVYYCAAGRGPYYRSRTPLYYWGQGTQVTVSS | high polyreactivity
QVQLVESCGGLVQAGGSLRLSCAASGSTFTVNAMGGYRQAPGKERELVAAINWSGGSTYYADSVKGRFTISRDNAKNTVYFQMNSLKPEDTAVYYCNKDREPYGYWSFDYWGQGSQVTVSS | low polyreactivity
QVQLVESGGRLVQAGGSLRLSCAASGRTFEIYSMGRYRHAPGKERELVAAITSGGSTYYADSVKGRFTISRDNAKNTVYLQMNSLKPEDTAVYYCNAYLYYDAHGVDYWGQGTQVTVSS | high polyreactivity
QVQLVESGGGLVQAGGSLRLSCAASGSTFRGYTMGWYRQAPGKERELVATISYRSGSTSYADSVKGRFTISRDNAKNTVYLQMNSLKPEDTAVYYCNRVYSKPRYYYWGQGTQVTVSS | high polyreactivity
QVQLVESGGGLVQAGGSLRLSCAASGRTFWYYAMGWYRQAPGNERELVATISYRGGSTYYADSVKGRFTISRDNAKNTVYLQMNSLKPEDPAVYYSAAKQWWGGRPKVDYWGQGTQVTVSS | high polyreactivity
QVQLVESGGGLVQAGGSLSLSCAAYGFTFWKYAMGRSRQAPGKESELVAAISVSGGRTYYADSVKGRFTISGDNAKNTVYLQINSLKPEDTASYYVATSFRNGWGSYYYWGQGTQVTVSS | high polyreactivity
QVQLVETGGGLVQAGASLRLSCAASGRTFVYNAMGWYRQAPGKEREFVAAIDGGGDRTFYADSVKGRFTISRDYAKNTVYLQMNSLKPEDTAVYYCARDPGDTYYYSYPEGDYWGQGTQVTVSS | low polyreactivity
QVQLVESGGGLVQAGGSLRLSCAASGFTFKKNAMGWYRQAPGKERELVAAIRSGTSTKYADSVKGRFTISRDNAKNTVYLQMNSLKPEDTAVYYCAAEEPEYLATWRNRRYDYWGQGTQVTVSS | low polyreactivity
QVQLVESGGGLVQAGGSLRLSCAASGFTFYPYAMGWYRQAPGKERELVASISWSGGSTYYADSVKGRFTISRDNAKNTVYFQMNSLKPEDTAVYYCNAEYWLPYYPDYDFWGQGTQVTVSS | low polyreactivity
QVQLVESGGGLVQAGGSLRLSCAASGRIFRIYTMGWYRQAPGKERELVAAITKSGGSTSYADSVKGRFTISRDNAKNTVYLQMNSLKPEDTAVYYCNAKGWSRPPGYDYWGQGTQLTVSS | high polyreactivity
QVQLVESGGGLVQAGGSLRLSSAASGRTFRYYAMRWYRQAPAKERELVAAINRGGSTYYGDSVKGRFTISRDNAKNTVYLQMNSLKPVDTAVYYCNVDKYRIVGFHTPYDYWGQGTQVTVSS | high polyreactivity

Sequence | polyreactivity (PSR sort gate)
QVQLVESWGGIVQAGGSLRLSCAASGSTFHDYAMGWYRQAPGKERELVAAISRRASRTYYADSVKGRFTISRDNAKNTDFLQMNSLKPEDTAVYDCNTDQSQKTVVYDYWGQGTQVTVSS | high polyreactivity
QDQIVESGGGLVQAGGSLRISCAPSGSILGYYGMGWYRQAPGKERELVAAISSSGNTNYADSVKGRFTISRDNAKNTVYFQMNSLKPDDTAVYYCAASFQYVAYFLYVYWGQGTQVTVSS | low polyreactivity
QVQLVESGGGLVQAGGSLRLSCAASGSIFRYNAMGWYRQAPGKDRELVAAISSGGSTKYADSVKGRFTISRDNAKNTVYLQMNSMKPEDTAVYFCVARRARYDYWGQGTQVTVSS | high polyreactivity
QVQLVESGGGLVQAGGSLRLSCASSGSTFSPNAMGWYRQAPGKERELVAAITYRGANTYYADSVKGRFTISRDNAKNTVYLQMNSLKPEDTAVYYCAAEYAYHHVGFGYWGQGTQVTVSS | low polyreactivity
QVQLVESGGGLDQAGGSLRLSCAASGSIFGYYAMGWYRQAPGKERELVAAISRSGGSTYYADSVKGRFTISRDNAKNTVYLQMNSLKPEDTAVYYCAARPPYRVGIVPLGRREYYWGQGTQVTVSS | high polyreactivity
QVQLVESGGGLVQAGGSLRLSCAASGFTFRYYAMGCYRQAPGKVRELVAAITGSGTRTYYADSVKGRFTISRDNAKNTVYLQMNSLKPEDTALYYCNAPRQPRWFDYWGQGTQVTVSS | high polyreactivity
QDQLVESGGGLVQAGGSLRLSCAASGSTLARYGMGWYRQAPGKERELVAAISYSGGRTYYADSVKGRFTISRDNAKNTVYLQMNSLKPEDTAVYYCAARRVYVPRGPIEFYYWGQGTQVTVSS | high polyreactivity
QVQLVESGGGLVQAGGSLRLSCAASGFTFVYYAMGWYRQAPGKERELVAAISQSGSSTYYADSVKGRFTISRDNPKNTVYLQMNSLKPEDTAVYYCNVYYASRPTYDFGYWGQVTQVTVSS | high polyreactivity
QVQLVESGGGLVQAGGSLRVSCAASGSIFKNNPMGWYRQAPGKERELVDANRYSGGRTYYAHSVKGRFTISRDHAKNTVYIQMNSLKPEVTAVYDCAAGSIQYRPTYTGDYWGQGSQVTVSS | high polyreactivity
QVQLVESGGGLVQAGGSLRLSCAASGRTFRFYAMGWYRQAPGKERELVAAISWNGGRTYYADSVKGRFTISRDNAKNTVYLQMNSLKPEDTAFYYCAKDRGGPFYWRYPLGYWGQGTQVTVSS | high polyreactivity
QVQLVESGGGLVQAGGSLRLSCAASGSIFGGYTMGWYRQPPGKERELVATISRRGGRTYYADSVKGRFTISRDNAKNTVYLQMNSLKPEDTAVYYCAARWGRGLEFDYWGQGTQVTVSS | high polyreactivity
QVQLVESGGGLVQAGGSLRLSCAASGFTFFDNAMGWYRQAPGKERELVAAITWSDGSTYYADSVKGRFTISRDNAKNTVYLQMNSLKPEDTAVYYCAVGFISYSYSNYYDVWYEYYYWGQGTQVTVSS | low polyreactivity
QVQLVESGGGLVQAGGSLRLSSADSGRIFNRYAMGSYRQAPGKERELVAAITGSGGRTYYADSVKGRFTISRDNAKNTVYLQMNSLKPEDTAVYYCAATSLIYGYRTYDYWGQGTQVTVSS | high polyreactivity
QVQLVESGGGLVQAGGSRRLSCAASGSTFYGYAMGWYRHAPGKEREFVAAITTSGGSTYYADSVKGRFTISRDNAKNTVYLQMNSLKPEDTAVYYCAADGFYYDDGYWGQGTQVTVSS | low polyreactivity
QVQLVESGGGLVQAGGSLRLSCAASGFNFPHYAMGWYIQAPGKERELVAAISWSGTRTYYADSVKGRFTISRDNAKNTVYLQMNSLKPEDTAVYYCNADSITEGNSRYSHFDYWGQGTQVTVSS | low polyreactivity
